According to article PMC4551920:
Where two headings read alike, the source gives them in different places.

B1: miR-16 (ssRNA)
RNA: UAGCAGCACGUAAAUAUUGGCG
B2: miR-122 17-22C (ssRNA)
RNA: UGGAGUGUGACAAUGGCCCCCC
B3: miR-122 23-nt (3'-a) (ssRNA)
RNA: UGGAGUGUGACAAUGGUGUUUGA
B4: miR-122 27-nt (3'-a5) (ssRNA)
RNA: UGGAGUGUGACAAUGGUGUUUGAAAAA

Key:
CUGBP1-Flag [1] = molecular target: T1, CUGBP1-Flag (UniProt Q92879 1-486); experiment: EMSA
CUGBP1-Flag [2] = molecular target: T1, CUGBP1-Flag; experiment: EMSA; remark: listed apart in the source

T1 sequence (Q92879 whole entry): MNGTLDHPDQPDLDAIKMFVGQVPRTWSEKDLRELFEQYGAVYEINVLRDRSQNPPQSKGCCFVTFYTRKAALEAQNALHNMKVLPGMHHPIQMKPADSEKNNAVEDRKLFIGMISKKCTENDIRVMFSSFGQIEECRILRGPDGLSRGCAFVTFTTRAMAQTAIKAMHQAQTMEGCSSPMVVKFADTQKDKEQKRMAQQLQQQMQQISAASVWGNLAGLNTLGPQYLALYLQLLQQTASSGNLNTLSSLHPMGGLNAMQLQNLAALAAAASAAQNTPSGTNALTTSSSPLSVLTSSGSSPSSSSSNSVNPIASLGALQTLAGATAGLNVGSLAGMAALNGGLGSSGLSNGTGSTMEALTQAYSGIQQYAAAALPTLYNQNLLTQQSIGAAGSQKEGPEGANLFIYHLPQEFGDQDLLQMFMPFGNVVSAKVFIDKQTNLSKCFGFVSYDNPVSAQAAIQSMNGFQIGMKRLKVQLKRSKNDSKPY

Binder | binding result (CUGBP1-Flag [1]) | binding result (CUGBP1-Flag [2])
B1 | no binding | 
B2 |  | no binding
B3 |  | binds
B4 |  | binds
